{"source": "paper PMC4383044", "about": "“Molecular insights into RNA and DNA helicase evolution from the determinants of specificity for a DEAD-box RNA helicase” (eLife, 2014)", "molecules": {"B1": {"name": "12-bp A-DNA duplex, 5' FAM (dsDNA)", "DNA 1": "CCCCCGCGGGGG", "DNA 2": "CCCCCGCGGGGG"}, "B2": {"name": "12-bp dsRNA, FAM/IBFQ (dsRNA)", "RNA 1": "CCCCCGCGGGGG", "RNA 2": "CCCCCGCGGGGG"}, "B3": {"name": "12-bp dsRNA, unlabeled (dsRNA)", "RNA 1": "CCCCCGCGGGGG", "RNA 2": "CCCCCGCGGGGG"}, "B4": {"name": "12-bp B-DNA duplex, unlabeled (dsDNA)", "DNA 1": "GCGCGCGCGCGC", "DNA 2": "GCGCGCGCGCGC"}, "B5": {"name": "12-bp B-DNA duplex, 5' FAM (dsDNA)", "DNA 1": "GCGCGCGCGCGC", "DNA 2": "GCGCGCGCGCGC"}, "B6": {"name": "12-bp dsRNA, 5' FAM (dsRNA)", "RNA 1": "CCCCCGCGGGGG", "RNA 2": "CCCCCGCGGGGG"}}, "key": {"[1]": {"target": "T1, Mss116 helicase core (D1D2, residues 88–597) (Saccharomyces cerevisiae, UniProt P15424)", "T1 construct": "helicase core D1D2 (residues 88-597; D1, D2 and CTE), lacking unstructured N- (37-87) and C-terminal (598-664) extensions; expressed as N-terminal MalE (MBP) fusion in E. coli Rosetta 2; D1D2 used for crystals and kinetic unwinding", "T1 sequence (P15424 88-597)": "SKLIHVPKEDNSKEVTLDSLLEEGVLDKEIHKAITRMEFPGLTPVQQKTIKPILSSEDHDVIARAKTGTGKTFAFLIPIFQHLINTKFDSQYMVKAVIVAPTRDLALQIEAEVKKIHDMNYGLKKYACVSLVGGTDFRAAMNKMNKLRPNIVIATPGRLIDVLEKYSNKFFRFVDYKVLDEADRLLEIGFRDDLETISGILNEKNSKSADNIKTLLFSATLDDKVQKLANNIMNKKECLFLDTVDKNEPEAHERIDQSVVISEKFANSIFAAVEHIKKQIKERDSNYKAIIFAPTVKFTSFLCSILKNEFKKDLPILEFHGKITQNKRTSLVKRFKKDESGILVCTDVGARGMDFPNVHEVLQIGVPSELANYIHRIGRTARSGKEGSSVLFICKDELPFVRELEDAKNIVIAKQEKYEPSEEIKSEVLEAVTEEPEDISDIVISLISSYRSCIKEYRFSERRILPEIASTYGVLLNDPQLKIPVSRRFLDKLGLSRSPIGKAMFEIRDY", "assay": "kinetic gel-based dsRNA unwinding", "type": "biochemical", "conditions": "5 mM ATP-Mg, 2 uM D1D2, 125 nM labelled 12-bp dsRNA, pH 7.5, 22 °C"}, "Mss116 D2, MBP-tagged [2]": {"target": "T2, Mss116 D2, MBP-tagged (Saccharomyces cerevisiae? (paper: yeast), UniProt P15424 342-597)", "T2 sequence": "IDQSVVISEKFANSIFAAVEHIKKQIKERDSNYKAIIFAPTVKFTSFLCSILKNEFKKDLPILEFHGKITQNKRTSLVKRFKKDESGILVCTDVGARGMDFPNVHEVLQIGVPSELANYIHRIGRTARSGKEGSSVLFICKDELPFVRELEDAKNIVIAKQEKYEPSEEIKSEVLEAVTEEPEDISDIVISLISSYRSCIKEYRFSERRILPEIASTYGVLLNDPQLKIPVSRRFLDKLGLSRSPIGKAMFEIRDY", "assay": "EMSA; no nucleotide; Hill 1.5; 20 mM Tris-HCl pH 7.5, 100 mM KCl, 10% glycerol, 1 mM DTT, 5 mM MgCl2, 0.1 mg/ml BSA, 22 C, >=1 h; EMSA gels 6% at 4 C in 0.5x TBE; SEC with 200 mM KCl, no BSA", "conditions": "protein: recombinant; tags: N-terminal MBP (MalE); label: 5' FAM; self-complementary, 2 strand copies, 12 bp"}, "[3]": {"target": "T3, Mss116 helicase core D1D2, MBP-tagged (Saccharomyces cerevisiae? (paper: yeast), UniProt P15424 88-597)", "T3 sequence": "T1 sequence (P15424 88-597)", "assay": "gel-based fluorescence closed-state/unwinding assay; ADP-BeFx titrated (value is nucleotide concentration), 2 uM protein; 20 mM Tris-HCl pH 7.5, 100 mM KCl, 10% glycerol, 1 mM DTT, 5 mM MgCl2, 0.1 mg/ml BSA, 22 C, >=1 h; EMSA gels 6% at 4 C in 0.5x TBE; SEC with 200 mM KCl, no BSA", "conditions": "protein: recombinant; tags: N-terminal MBP (MalE); label: 5' FAM, 3' Iowa Black FQ; self-complementary, 2 strand copies, 12 bp"}, "Mss116 D2, MBP-tagged [4]": {"target": "T2, Mss116 D2, MBP-tagged", "assay": "competition; unlabeled dsRNA displacing 250 nM 5' FAM-B-DNA from 500 nM MBP-D2; 20 mM Tris-HCl pH 7.5, 100 mM KCl, 10% glycerol, 1 mM DTT, 5 mM MgCl2, 0.1 mg/ml BSA, 22 C, >=1 h; EMSA gels 6% at 4 C in 0.5x TBE; SEC with 200 mM KCl, no BSA", "conditions": "protein: recombinant; tags: N-terminal MBP (MalE); self-complementary, 2 strand copies, 12 bp"}, "[5]": {"target": "T4, Mss116 helicase core D1D2 (Saccharomyces cerevisiae? (paper: yeast), UniProt P15424 88-597)", "T4 sequence": "T1 sequence (P15424 88-597)", "assay": "SEC; 5 mM ADP-BeFx; A260/A280 0.6, open; no complex maintained on column; 20 mM Tris-HCl pH 7.5, 100 mM KCl, 10% glycerol, 1 mM DTT, 5 mM MgCl2, 0.1 mg/ml BSA, 22 C, >=1 h; EMSA gels 6% at 4 C in 0.5x TBE; SEC with 200 mM KCl, no BSA", "conditions": "protein: recombinant; tags: expressed as MalE fusion; self-complementary, 2 strand copies, 12 bp"}, "Mss116 D2, MBP-tagged [6]": {"target": "T2, Mss116 D2, MBP-tagged", "assay": "competition; unlabeled B-DNA displacing 250 nM 5' FAM-dsRNA from 500 nM MBP-D2; 20 mM Tris-HCl pH 7.5, 100 mM KCl, 10% glycerol, 1 mM DTT, 5 mM MgCl2, 0.1 mg/ml BSA, 22 C, >=1 h; EMSA gels 6% at 4 C in 0.5x TBE; SEC with 200 mM KCl, no BSA", "conditions": "protein: recombinant; tags: N-terminal MBP (MalE); self-complementary, 2 strand copies, 12 bp"}, "Mss116 D2, MBP-tagged [7]": {"target": "T2, Mss116 D2, MBP-tagged", "assay": "EMSA; no nucleotide; Hill 1.6; 20 mM Tris-HCl pH 7.5, 100 mM KCl, 10% glycerol, 1 mM DTT, 5 mM MgCl2, 0.1 mg/ml BSA, 22 C, >=1 h; EMSA gels 6% at 4 C in 0.5x TBE; SEC with 200 mM KCl, no BSA", "conditions": "protein: recombinant; tags: N-terminal MBP (MalE); label: 5' FAM; self-complementary, 2 strand copies, 12 bp"}, "Mss116 D2, MBP-tagged [8]": {"target": "T2, Mss116 D2, MBP-tagged", "assay": "EMSA; no nucleotide; Hill 2.2; 20 mM Tris-HCl pH 7.5, 100 mM KCl, 10% glycerol, 1 mM DTT, 5 mM MgCl2, 0.1 mg/ml BSA, 22 C, >=1 h; EMSA gels 6% at 4 C in 0.5x TBE; SEC with 200 mM KCl, no BSA", "conditions": "protein: recombinant; tags: N-terminal MBP (MalE); label: 5' FAM; self-complementary, 2 strand copies, 12 bp"}}, "data": [{"molecule": "Nc1ncnc2c1ncn2[C@@H]1O[C@H](COP(=O)(O)OP(=O)(O)OP(=O)(O)O)[C@@H](O)[C@H]1O", "note": "[ATP]", "values": [{"measurement": "kinetic gel-based dsRNA unwinding", "setting": "[1]", "result": "only ATP, and not other NTPs, catalyzes the unwinding of the dsRNA"}]}, {"molecule": "B1", "values": [{"measurement": "apparent K (half saturation)", "setting": "Mss116 D2, MBP-tagged [2]", "result": 410, "unit": "nM"}]}, {"molecule": "B2", "values": [{"measurement": "apparent K (half saturation)", "setting": "[3]", "result": 140, "unit": "µM"}]}, {"molecule": "B3", "values": [{"measurement": "Ki", "setting": "Mss116 D2, MBP-tagged [4]", "result": "860 ± 40", "unit": "nM"}]}, {"molecule": "B4", "values": [{"measurement": "binding result", "setting": "[5]", "result": "no binding"}, {"measurement": "Ki", "setting": "Mss116 D2, MBP-tagged [6]", "result": "1700 ± 200", "unit": "nM"}]}, {"molecule": "B5", "values": [{"measurement": "apparent K (half saturation)", "setting": "Mss116 D2, MBP-tagged [7]", "result": 510, "unit": "nM"}]}, {"molecule": "B6", "values": [{"measurement": "apparent K (half saturation)", "setting": "Mss116 D2, MBP-tagged [8]", "result": 400, "unit": "nM"}]}]}
